Results from article PMC5152705.

Experiments:
[1] = molecular target: recombinant fragment of human SP-A (rfhSP-A) (human); experiment: SEC; gel permeation chromatography, Superdex 200 HR 10/30, TBS with 5 mM EDTA, pH 7.4; rfhSP-A purified by mannan affinity chromatography; also after freeze/thawing
[2] = molecular target: recombinant fragment of human SP-A (rfhSP-A) (human); experiment: SEC; gel permeation chromatography, Superdex 200 HR 10/30, TBS with 5 mM EDTA, pH 7.4; rfhSP-A after IMAC and removal of the NT tag; quaternary structure estimated by comparison with molecular weight standards

Substance “recombinant fragment of human SP-A (rfhSP-A) (domain or fragment)” has a stoichiometry N [1] of 3, a percent dimeric [2] of 15% and a percent monomeric [2] of 9%. It also gave a percent trimeric [2] of 72% and a stoichiometry N [2] of 3.
